Laboratory results reported in US20100286021A1, “Methods of Modulating Prokineticin 2 for Treatment of Stress Response and Anxiety-Related Disorders” (priority 2007, published 2010).

Legend:
[1] = tested on: PK2 mRNA in the PVN; settings: compared with induction by 24 hours of food deprivation
Method: In situ hybridization was performed for detection. Animals were killed and brains were quickly dissected and stored at −80° C. until use. In situ hybridization was performed on coronal sections as described previously. The ^35S-hybridized slices were then coated with Kodak NTB2 autoradiographic emulsion and exposed for 1 month at 4° C.

[2] = Hot-plate pain test, morphine-induced analgesia; format: in vivo; settings: subcutaneous injection, various concentrations, 55° C. hot plate, WT vs PK2^-/- mice
Source text: FIGS. 6A-6C show impaired stress-induced analgesia in PK2^-/- mice. […] (a and b) The hot-plate latency was monitored before or after stress. Animals were stressed by 3-min of cold-water swimming (a) or 5-min of tail suspension (b). Wild-type (closed circles); PK2^-/- (open circles). The black blocks indicate the stressing period. (c) The hot-plate latency was also monitored after subcutaneous injection of various concentrations of morphine. There was no genotypic difference in morphine-induced analgesia; n=12-15 mice/genotype *, P<0.05; unpaired t test. Error bars, SEM.
Pain perception and stress-induced analgesia was measured. All the pain tests were carried out on a hot plate with a 55° C. surface, on which no basal difference was observed between WT and PK2^-/- mice. The cut-off time was set to 1 min to prevent tissue damage. Stress was induced by forced swimming for 3 min in 10° C. water, or suspending the tail for 5 minutes.

[3] = Sleep/wake recording after ICV infusion; format: in vivo; settings: rats, 5 μg ICV at ZT 14, following 4 hours (ZT 14-18), vs CSF
Method: (§1) (a) Artificial cerebrospinal fluid (CSF) or 5 μg of PK2 was infused ICV to rats at ZT 14. Slow wave sleep (SWS), rapid eye movement sleep (REM) and active wake (AW) during the following 4 hours (ZT 14-18) were averaged and presented as mean±SEM; n=6 rats/group. (b) CSF or 5 μg of PK2 was infused ICV to rats at ZT 2 (day) or ZT 14 (night), the food intake in the following 24 hours were measured periodically and presented as mean±SEM. n=6-10 rats/group. (c) CSF or 4 μg of PK2 was infused ICV into mice. Anxiety-like behavior was monitored with a light-dark box assay 1 hour after infusion. n=12 mice/group. (d) CSF or 4 μg of PK2 was infused ICV into mice. Immobility in a forced swimming test was measured 1 hour after infusion; n=12 mice/group. *, P<0.05; unpaired t test. Error bars, SEM.
Recording and analysis of sleep/wake was performed. The sleep/wake recording in rats was carried out as described in reference. Digital recording was visually scored as slow wave sleep (SWS), rapid eye movement sleep (REM) and active wake (AW). For the mice, electroencephalogram (EEG) and electromyogram (EMG) signals were recorded using a lightweight implant and cabling procedure as described. […] The signals were digitally filtered (EEG, 0.3-30 Hz; EMG, 2-100 Hz) and semi-automatically scored in 4 second epochs as wake, NREM, or REM sleep using SleepSign sleep scoring software (Kissei Comtec America, California). […]

[4] = Food intake after ICV infusion; format: in vivo; settings: rats, 5 μg ICV at ZT 2 (day) or ZT 14 (night), following 24 hours, vs CSF
Method: as §1
Food intake was measured. Mice food intake measurement was performed using a Comprehensive Lab Animal Monitoring System (CLAMS, Columbus Instruments, Columbus, Ohio). Feeding data were collected every 10 min for each mouse over a period of 5 days. The daily food intake was the total food consumed during 24 hours. For rats, the food pellets in the food bin were measured manually every 4-8 hours after drug infusion. The food intake was the total amount of food loaded subtracted by the amount of food left.
Intracerebroventricular infusion was utilized. […]

[5] = Light-dark box assay (anxiety-like behavior) after ICV infusion; format: in vivo; settings: mice, 4 μg ICV, 1 hour after infusion, vs CSF
Method: as §1
The light-dark box was divided into a lit compartment (30×20×25 cm, illumination 400 lux) and a dark compartment (15×20×25 cm) connected by a 4-cm tunnel. The experiment was started by placing the animal in the dark compartment.
Numbers of transitions, total time spent in the lit compartment, and latency until the first exit were recorded on video and quantified during 10 minutes.
(§2) Intracerebroventricular infusion was utilized. Rats with cannula fit to the lateral ventricle were purchased from Charles River laboratory. […]

[6] = Forced swimming test (depression-like behavior) after ICV infusion; format: in vivo; settings: mice, 4 μg ICV, 1 hour after infusion, vs CSF
Method: as §1
The Porsolt forced swim test was utilized. Animals were placed individually in cylinders (height 25 cm, diameter 11 cm) filled with 8-cm-deep water (temperature 22±1° C.) for 6 minutes The total period of immobility during the 6 minutes was recorded. Immobility was defined as no volitional body or limb movement.
as §2

For `O=CC[C@@H](O)[C@H](O)[C@H](O)CO` [2-DG, 2-Dexoyl-D-glucose], the “induction of PK2 mRNA in the PVN” value [1] was “induction was mimicked”.

In the case of `CN1CC[C@]23c4c5ccc(O)c4O[C@H]2[C@@H](O)C=C[C@H]3[C@H]1C5` [morphine], the “morphine-induced analgesia (hot-plate latency)” value [2] is reported as “indistinguishable between WT and PK2^-/- mice”.

B1: PK2: regulatory peptide that activates two closely related G protein-coupled receptors (PKR1, PKR2) (protein, UniProt Q9HC23 28-129, looked up)
Prokineticin-2: AVITGACDKDSQCGGGMCCAVSIWVKSIRICTPMGKLGDSCHPLTRKNNFGNGRQERRKRKRSKRKKEVPFFGRRMHHTCPCLPGLACLRTSFNRFICLAQK
In the case of B1, the arousal level [3] is reported as “significantly increased arousal level”, the food intake [4] is reported as “circadian phase-independent suppression of food intake” and the “general activity (total entries)” value [5] is reported as “without significant effect on general activity”. For the same molecule, the “time spent in the lit compartment” value [5] was “significantly less time spent in the lit compartment” and the “time spent on immobility” value [6] was “significantly increased the time spent on immobility”.
